Target: the molecule itself
Assay: crystal structure

B1: N-terminal six-His-tagged FosB from Staphylococcus aureus with a bacillithiol-Cys9 disulfide bond (enzyme)
chain: not shown
modifications: Cys9 in a disulfide bond with bacillithiol (BS-Cys9)
stoichiometry N: 2

Reference: paper PMC3985756 (Biochemistry, 2014)
